Laboratory results as given in the supplement of paper PMC9112550, “Optimization of the antimicrobial peptide Bac7 by deep mutational scanning” (BMC Biology, 2022).

These sequences were tested on Escherichia coli TOP10 (assay: shrunken log2 fold change of peptide-encoding DNA abundance (4.5 h post-induction vs induction); higher = less antimicrobial activity (less host growth inhibition)). Conditions: time post-induction: 4.5 h; library: site-saturation at positions 5, 18, 19, 20.
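Also: peptides expressed intracellularly from a pBAD plasmid library in pooled LB shake-flask culture, induced with 0.3% L-arabinose, DNA abundance read by NGS, three biological replicates, DESeq2 with apeglm shrinkage.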

Row | Sequence | shrunken log2 fold change
1 | RRIRFRPPRLPRPRPRPIYFPRP | -0.09
2 | RRIRMRPPRLPRPRPRPLNAPRP | 0.35
3 | RRIRRRPPRLPRPRPRPSLLPRP | 0.17
4 | RRIRMRPPRLPRPRPRPVHHPRP | 0.00757
5 | RRIRPRPPRLPRPRPRPIKSPRP | -0.0993
6 | RRIRARPPRLPRPRPRPVTIPRP | -0.207
7 | RRIRTRPPRLPRPRPRPTDNPRP | -0.302
8 | RRIRWRPPRLPRPRPRPDMWPRP | 0.228
9 | RRIRPRPPRLPRPRPRPWNWPRP | 0.3
10 | RRIRARPPRLPRPRPRPPGFPRP | 0.59
11 | RRIRNRPPRLPRPRPRPTASPRP | 1.61
12 | RRIRWRPPRLPRPRPRPRHEPRP | -0.0681
13 | RRIRMRPPRLPRPRPRPEFQPRP | 0.372
14 | RRIRRRPPRLPRPRPRPEPHPRP | 0.315
15 | RRIRNRPPRLPRPRPRPTRMPRP | 0.245
16 | RRIRTRPPRLPRPRPRPAAWPRP | 0.754
17 | RRIRYRPPRLPRPRPRPRHTPRP | -0.108
18 | RRIRQRPPRLPRPRPRPLRNPRP | 0.121
19 | RRIRMRPPRLPRPRPRPIIPPRP | 0.000609
20 | RRIRQRPPRLPRPRPRPNSIPRP | -0.21
21 | RRIRRRPPRLPRPRPRPASYPRP | -0.111
22 | RRIRTRPPRLPRPRPRPHHIPRP | -0.278
23 | RRIRCRPPRLPRPRPRPELRPRP | 0.0185
24 | RRIRGRPPRLPRPRPRPAMFPRP | 0.455
25 | RRIRLRPPRLPRPRPRPLQSPRP | 0.0468

Row | Sequence | shrunken log2 fold change
26 | RRIRTRPPRLPRPRPRPFPMPRP | -0.596
27 | RRIRLRPPRLPRPRPRPIPCPRP | -0.00241
28 | RRIRIRPPRLPRPRPRPVSRPRP | 0.0446
29 | RRIRSRPPRLPRPRPRPLNFPRP | -0.305
30 | RRIRFRPPRLPRPRPRPDQNPRP | -0.203
31 | RRIRMRPPRLPRPRPRPGSWPRP | 0.858
32 | RRIRERPPRLPRPRPRPAAHPRP | -0.128
33 | RRIRLRPPRLPRPRPRPVAIPRP | 0.0902
34 | RRIRLRPPRLPRPRPRPCIMPRP | -0.0711
35 | RRIRVRPPRLPRPRPRPWKCPRP | -0.173
36 | RRIRLRPPRLPRPRPRPDYRPRP | -0.0122
37 | RRIRWRPPRLPRPRPRPLQNPRP | -0.11
38 | RRIRVRPPRLPRPRPRPHSDPRP | 0.0538
39 | RRIRSRPPRLPRPRPRPNMQPRP | -0.0719
40 | RRIRDRPPRLPRPRPRPADKPRP | -0.0463
41 | RRIRNRPPRLPRPRPRPLADPRP | -0.00474
42 | RRIRYRPPRLPRPRPRPWILPRP | -0.482
43 | RRIRHRPPRLPRPRPRPFMYPRP | -0.249
44 | RRIRCRPPRLPRPRPRPWDFPRP | -0.0326
45 | RRIRWRPPRLPRPRPRPIHPPRP | -0.117
46 | RRIRERPPRLPRPRPRPRGRPRP | 0.358
47 | RRIRYRPPRLPRPRPRPCELPRP | -0.0555
48 | RRIRRRPPRLPRPRPRPYHDPRP | -0.266
49 | RRIRERPPRLPRPRPRPLYMPRP | -0.748
50 | RRIRDRPPRLPRPRPRPKQDPRP | 0.172

Row | Sequence | shrunken log2 fold change
51 | RRIRNRPPRLPRPRPRPIPIPRP | -0.0823
52 | RRIRGRPPRLPRPRPRPFRSPRP | -0.599
53 | RRIRYRPPRLPRPRPRPWWRPRP | -0.0462
54 | RRIRCRPPRLPRPRPRPCGHPRP | -0.101
55 | RRIRCRPPRLPRPRPRPNMMPRP | -0.475
56 | RRIRERPPRLPRPRPRPQHRPRP | 0.152
57 | RRIRKRPPRLPRPRPRPHKGPRP | -0.0331
58 | RRIRVRPPRLPRPRPRPCMRPRP | 0.108
59 | RRIRVRPPRLPRPRPRPIRTPRP | 0.782
60 | RRIRTRPPRLPRPRPRPGFAPRP | 0.33
61 | RRIRRRPPRLPRPRPRPTSGPRP | 0.252
62 | RRIRIRPPRLPRPRPRPHCHPRP | -0.394
63 | RRIRQRPPRLPRPRPRPVHCPRP | -0.166
64 | RRIRKRPPRLPRPRPRPIIIPRP | -0.104
65 | RRIRDRPPRLPRPRPRPWYHPRP | -0.0258
66 | RRIRKRPPRLPRPRPRPRSSPRP | 0.263
67 | RRIRSRPPRLPRPRPRPFHIPRP | -1.07
68 | RRIRMRPPRLPRPRPRPQIHPRP | 0.149
69 | RRIRIRPPRLPRPRPRPAKQPRP | 0.0314
70 | RRIRARPPRLPRPRPRPDSRPRP | 0.12
71 | RRIRDRPPRLPRPRPRPHRHPRP | -0.00955
72 | RRIRHRPPRLPRPRPRPKCYPRP | -0.0358
73 | RRIRHRPPRLPRPRPRPCLQPRP | -0.148
74 | RRIRERPPRLPRPRPRPLYTPRP | -0.41
75 | RRIRWRPPRLPRPRPRPDERPRP | -0.00133

Row | Sequence | shrunken log2 fold change
76 | RRIRCRPPRLPRPRPRPMKTPRP | -0.11
77 | RRIRFRPPRLPRPRPRPLHWPRP | 0.0916
78 | RRIRMRPPRLPRPRPRPWDPPRP | 0.287
79 | RRIRNRPPRLPRPRPRPVCPPRP | -0.14
80 | RRIRGRPPRLPRPRPRPWVVPRP | 0.273
81 | RRIRRRPPRLPRPRPRPECFPRP | 0.3
82 | RRIRWRPPRLPRPRPRPRKSPRP | 0.264
83 | RRIRLRPPRLPRPRPRPRNRPRP | 0.267
84 | RRIRDRPPRLPRPRPRPLDYPRP | -0.242
85 | RRIRDRPPRLPRPRPRPEYIPRP | -0.0149
86 | RRIRERPPRLPRPRPRPTLCPRP | 0.259
87 | RRIRNRPPRLPRPRPRPPGEPRP | 0.0757
88 | RRIRMRPPRLPRPRPRPKFHPRP | -0.174
89 | RRIRQRPPRLPRPRPRPLHWPRP | 0.0127
90 | RRIRHRPPRLPRPRPRPMLQPRP | -0.0377
91 | RRIRMRPPRLPRPRPRPLCHPRP | 0.061
92 | RRIRYRPPRLPRPRPRPHIIPRP | -0.501
93 | RRIRGRPPRLPRPRPRPCQHPRP | -0.153
94 | RRIRPRPPRLPRPRPRPYYWPRP | -0.0723
95 | RRIRKRPPRLPRPRPRPMSWPRP | 5.25
96 | RRIRGRPPRLPRPRPRPVRQPRP | 0.883
97 | RRIRSRPPRLPRPRPRPGGMPRP | 0.446
98 | RRIRKRPPRLPRPRPRPWGCPRP | 0.131
99 | RRIRQRPPRLPRPRPRPRHGPRP | -0.203
100 | RRIRGRPPRLPRPRPRPYLKPRP | -0.0688

Row | Sequence | shrunken log2 fold change
101 | RRIRSRPPRLPRPRPRPDSLPRP | 0.00187
102 | RRIRKRPPRLPRPRPRPYSTPRP | -0.0551
103 | RRIRVRPPRLPRPRPRPNCYPRP | -0.411
104 | RRIRKRPPRLPRPRPRPGRHPRP | 0.227
105 | RRIRVRPPRLPRPRPRPHPQPRP | -0.0987
106 | RRIRDRPPRLPRPRPRPWKWPRP | 0.0155
107 | RRIRCRPPRLPRPRPRPFAQPRP | 0.00363
108 | RRIRFRPPRLPRPRPRPYFHPRP | -1.66
109 | RRIRFRPPRLPRPRPRPKQRPRP | 0.384
110 | RRIRNRPPRLPRPRPRPPCNPRP | -0.517
111 | RRIRGRPPRLPRPRPRPYVTPRP | 0.0521
112 | RRIRIRPPRLPRPRPRPRTGPRP | -0.0659
113 | RRIRLRPPRLPRPRPRPGYLPRP | -0.282
114 | RRIRGRPPRLPRPRPRPTCIPRP | 0.351
115 | RRIRVRPPRLPRPRPRPKGGPRP | 0.0495
116 | RRIRFRPPRLPRPRPRPCNVPRP | -0.01
117 | RRIRTRPPRLPRPRPRPHPRPRP | 0.467
118 | RRIRCRPPRLPRPRPRPMMVPRP | -0.659
119 | RRIRMRPPRLPRPRPRPRLTPRP | 1.13
120 | RRIRKRPPRLPRPRPRPESNPRP | 1.13
121 | RRIRIRPPRLPRPRPRPHPSPRP | -0.488
122 | RRIRIRPPRLPRPRPRPNMLPRP | -1.18
123 | RRIRYRPPRLPRPRPRPVWIPRP | -1.23
124 | RRIRKRPPRLPRPRPRPPAHPRP | 0.808
125 | RRIRFRPPRLPRPRPRPDVYPRP | -0.32

Row | Sequence | shrunken log2 fold change
126 | RRIRFRPPRLPRPRPRPRDRPRP | 0.387
127 | RRIRERPPRLPRPRPRPWNDPRP | -0.342
128 | RRIRPRPPRLPRPRPRPIWWPRP | 0.665
129 | RRIRFRPPRLPRPRPRPVNAPRP | 0.135
130 | RRIRKRPPRLPRPRPRPRRLPRP | 0.0159
131 | RRIRNRPPRLPRPRPRPQLHPRP | -0.358
132 | RRIRERPPRLPRPRPRPCIFPRP | -0.749
133 | RRIRQRPPRLPRPRPRPIFYPRP | -0.418
134 | RRIRDRPPRLPRPRPRPNYNPRP | -0.865
135 | RRIRRRPPRLPRPRPRPCGSPRP | 0.0143
136 | RRIRHRPPRLPRPRPRPVCGPRP | 0.137
137 | RRIRDRPPRLPRPRPRPIWQPRP | 0.211
138 | RRIRVRPPRLPRPRPRPIFAPRP | 0.231
139 | RRIRMRPPRLPRPRPRPSLWPRP | 1.72
140 | RRIRWRPPRLPRPRPRPWERPRP | 0.142
141 | RRIRPRPPRLPRPRPRPYWMPRP | -1.06
142 | RRIRQRPPRLPRPRPRPCNIPRP | -0.646
143 | RRIRFRPPRLPRPRPRPGHPPRP | -0.0866
144 | RRIRERPPRLPRPRPRPYFHPRP | -0.996
145 | RRIRTRPPRLPRPRPRPCYPPRP | -0.425
146 | RRIRDRPPRLPRPRPRPMTRPRP | -0.113
147 | RRIRCRPPRLPRPRPRPMQAPRP | 0.249
148 | RRIRWRPPRLPRPRPRPLSCPRP | 0.154
149 | RRIRERPPRLPRPRPRPDGHPRP | -0.00149
150 | RRIRPRPPRLPRPRPRPCTFPRP | -0.00278
